# Reference: the RNAGym collection of RNA variant scans (doi:10.1093/molbev/msab373)
# B1: Azoarcus group I ribozyme (parent)
# chain: GUGCCUUGCGCCGGGAAACCACGCAAGGGAUGGUGUCAAAUUCGGCGAAACCUAAGCGCCCGCCCGGGCGUAUGGCAACGCCGAGCCAAGCUUCGGCGCCUGCGCCGAUGAAGGUGUAGAGACUAGACGGCACCCACCUAAGGCAAACGCUAUGGUGAAGGCAUAGUCCAGGGAGUGGCGAAAGUCACACAAACCGG
# Variants of: B1
# Test: reverse-splicing fitness (ratio to wild type); higher = more active; in vitro selection; Mg2+ level not given
# Procedure, shortened: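 An in vitro group I ribozyme library with randomized positions was T7-transcribed and gel-purified. In triplicate, 10 pmol RNA in EPPS pH 7.5 was reacted with 50 pmoles of a 30-nt RNA substrate for 1 h at 37 °C across several added MgCl2 levels (1–48 mM), then stopped with EDTA. Products were reverse transcribed from a substrate-complementary primer, PCR-amplified and sequenced (HiSeq 4000). Fitness is a variant's read proportion after selection over that before, normalised to wild type.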
row,Variant,reverse-splicing fitness
1,C82A A120U A145G C169U U176G,0.00139
2,C82A A120U A145G U176A,0.0348
3,C82A A120U A145G U176C,0.0599
4,C82A A120U A145G U176G,0.0073
5,C82A A120U A145U,0.148
6,C82A A120U A145U C150A,0.0126
7,C82A A120U A145U C150A C169A,0.00213
8,C82A A120U A145U C150A C169A U176A,0.0022
9,C82A A120U A145U C150A C169A U176C,0.00188
10,C82A A120U A145U C150A C169A U176G,0.00186
11,C82A A120U A145U C150A C169G,0.00217
12,C82A A120U A145U C150A C169G U176A,0.00237
13,C82A A120U A145U C150A C169G U176C,0.00266
14,C82A A120U A145U C150A C169G U176G,0.00136
15,C82A A120U A145U C150A C169U,0.00267
16,C82A A120U A145U C150A C169U U176A,0.00228
17,C82A A120U A145U C150A C169U U176C,0.0026
18,C82A A120U A145U C150A C169U U176G,0.00196
19,C82A A120U A145U C150A U176A,0.00611
20,C82A A120U A145U C150A U176C,0.0092
21,C82A A120U A145U C150A U176G,0.00276

row,Variant,reverse-splicing fitness
1,C82A A120U A145U C150G,0.0166
2,C82A A120U A145U C150G C169A,0.00305
3,C82A A120U A145U C150G C169A U176A,0.00324
4,C82A A120U A145U C150G C169A U176C,0.00214
5,C82A A120U A145U C150G C169A U176G,0.00201
6,C82A A120U A145U C150G C169G,0.00265
7,C82A A120U A145U C150G C169G U176A,0.00253
8,C82A A120U A145U C150G C169G U176C,0.00221
9,C82A A120U A145U C150G C169G U176G,0.00188
10,C82A A120U A145U C150G C169U,0.00321
11,C82A A120U A145U C150G C169U U176A,0.0025
12,C82A A120U A145U C150G C169U U176C,0.00262
13,C82A A120U A145U C150G C169U U176G,0.0021
14,C82A A120U A145U C150G U176A,0.00533
15,C82A A120U A145U C150G U176C,0.00823
16,C82A A120U A145U C150G U176G,0.00318
17,C82A A120U A145U C150U,0.0889
18,C82A A120U A145U C150U C169A,0.00226
19,C82A A120U A145U C150U C169A U176A,0.00275
20,C82A A120U A145U C150U C169A U176C,0.00272
21,C82A A120U A145U C150U C169A U176G,0.00171

row,Variant,reverse-splicing fitness
1,C82A A120U A145U C150U C169G,0.00375
2,C82A A120U A145U C150U C169G U176A,0.00257
3,C82A A120U A145U C150U C169G U176C,0.00288
4,C82A A120U A145U C150U C169G U176G,0.00197
5,C82A A120U A145U C150U C169U,0.00442
6,C82A A120U A145U C150U C169U U176A,0.00274
7,C82A A120U A145U C150U C169U U176C,0.00354
8,C82A A120U A145U C150U C169U U176G,0.00221
9,C82A A120U A145U C150U U176A,0.0232
10,C82A A120U A145U C150U U176C,0.0364
11,C82A A120U A145U C150U U176G,0.0066
12,C82A A120U A145U C169A,0.00202
13,C82A A120U A145U C169A U176A,0.00216
14,C82A A120U A145U C169A U176C,0.00182
15,C82A A120U A145U C169A U176G,0.00177
16,C82A A120U A145U C169G,0.00509
17,C82A A120U A145U C169G U176A,0.00173
18,C82A A120U A145U C169G U176C,0.00254
19,C82A A120U A145U C169G U176G,0.00116
20,C82A A120U A145U C169U,0.0055
21,C82A A120U A145U C169U U176A,0.00202

row,Variant,reverse-splicing fitness
1,C82A A120U A145U C169U U176C,0.00276
2,C82A A120U A145U C169U U176G,0.00154
3,C82A A120U A145U U176A,0.036
4,C82A A120U A145U U176C,0.0582
5,C82A A120U A145U U176G,0.01
6,C82A A120U C150A,0.016
7,C82A A120U C150A C169A,0.0042
8,C82A A120U C150A C169A U176A,0.00388
9,C82A A120U C150A C169A U176C,0.00234
10,C82A A120U C150A C169A U176G,0.0024
11,C82A A120U C150A C169G,0.00417
12,C82A A120U C150A C169G U176A,0.00593
13,C82A A120U C150A C169G U176C,0.0032
14,C82A A120U C150A C169G U176G,0.00162
15,C82A A120U C150A C169U,0.00372
16,C82A A120U C150A C169U U176A,0.00391
17,C82A A120U C150A C169U U176C,0.00414
18,C82A A120U C150A C169U U176G,0.00215
19,C82A A120U C150A U176A,0.00729
20,C82A A120U C150A U176C,0.00899
21,C82A A120U C150A U176G,0.00257
